The data set “SEC-MALS” deals with the molecule itself. The experiment in a line: SEC-MALS. In general terms: Size exclusion chromatography separates by hydrodynamic size, large species first.
The target of data set [1] is M. tuberculosis LigD, wild type, His-tag removed by TEV (MST analyte) (M. tuberculosis, UniProt P9WNV3 1-759). Kind of data set: MST.
Data set [2] has as its target M. tuberculosis LigD R198E (M. tuberculosis, UniProt P9WNV3 1-759, R198E). Kind of data set: MST.
For data set [3], the target named is M. tuberculosis LigD L580E (M. tuberculosis, UniProt P9WNV3 1-759, L580E). Kind of data set: MST.
The target of data set [4] is M. tuberculosis LigD V194D (M. tuberculosis, UniProt P9WNV3 1-759, V194D). Kind of data set: MST.
Data set [5] deals with M. tuberculosis LigD D162R (M. tuberculosis, UniProt P9WNV3 1-759, D162R). Kind of data set: MST.
Data set [6] has as its target M. tuberculosis LigD K579E (M. tuberculosis, UniProt P9WNV3 1-759, K579E). The experiment in a line: MST.

Residue numbers refer to the chain shown, from its start. Numbers in names are those of the source.

The stoichiometry N is a count of units in the complex or per binding partner. As a reminder, the Kd is the equilibrium constant for the complex coming apart. A low value points to a tighter complex.

B1: M. tuberculosis Ku R262A (natural protein)
chain: MRAIWTGSIAFGLVNVPVKVYSATADHDIRFHQVHAKDNGRIRYKRVCEACGEVVDYRDLARAYESGDGQMVAITDDDIASLPEERSREIEVLEFVPAADVDPMMFDRSYFLEPDSKSSKSYVLLAKTLAETDRMAIVHFTLRNKTRLAALRVKDFGKREVMMVHTLLWPDEIRDPDFPVLDQKVEIKPAELKMAGQVVDSMADDFNPDRYHDTYQEQLQELIDTKLEGGQAFTAEDQPRLLDEPEDVSDLLAKLEASVKAASKANSNVPTPP
Take B1: the “stoichiometry N” value in “SEC-MALS” was 2. In addition, in data set [1], the binding result is given as “binds”.

B2: M. tuberculosis Ku E246A (natural protein)
chain: B1 chain with E246A, A262R
With B2, in “SEC-MALS”, the “stoichiometry N” value stood at 2. Moreover, the binding result in data set [1] was “binds”.

B3: M. tuberculosis Ku S263A (natural protein)
chain: B1 chain with A262R, S263A
Consider B3, for which the “stoichiometry N” value in the data set “SEC-MALS” is 2. Moreover, the binding result in data set [1] was “binds”.

B4: M. tuberculosis Ku N266A (natural protein)
chain: B1 chain with A262R, N266A
With B4, the “stoichiometry N” value in the data set “SEC-MALS” stood at 2.

B5: M. tuberculosis Ku, wild type, His-tagged and RED-tris-NTA labelled (MST ligand) (natural protein)
chain: B1 chain with A262R
Molecule B5 registered a Kd in data set [1] of 850 nM.

B6: M. tuberculosis Ku V248A (natural protein)
chain: B1 chain with V248A, A262R
For B6, in the data set “SEC-MALS”, the “stoichiometry N” value was 2. The binding result in data set [1] is given as “binds”.

B7: M. tuberculosis Ku, wild type, His-tag removed by TEV (MST analyte) (natural protein)
chain: B1 chain with A262R
Turning to B7, the binding result in data set [2], in data set [4] and in data set [5] was “binds” throughout. For the same molecule, the figures for the Kd in data set [3] and in data set [6] were 1270 nM and 510 nM, respectively.

B8: M. tuberculosis Ku E256A (natural protein)
chain: B1 chain with E256A, A262R
Regarding B8, the “stoichiometry N” value in “SEC-MALS” is 2. Besides, the binding result in data set [1] was “binds”.

B9: M. tuberculosis Ku S258A (natural protein)
chain: B1 chain with S258A, A262R
Regarding B9, in the data set “SEC-MALS”, the “stoichiometry N” value worked out at 2. The binding result in data set [1] is given as “binds”.

B10: M. tuberculosis Ku K260A (natural protein)
chain: B1 chain with K260A, A262R
For B10, in “SEC-MALS”, the “stoichiometry N” value is 2. Besides, in data set [1], the binding result is “binds”.

These data come from article doi:10.64898/2025.12.12.693941 (bioRxiv, 2025).
